Test results as given in paper doi:10.1101/2020.06.11.147496.

Key:
[1] = target: LuS-N71-SpyTag (Aquifex aeolicus lumazine synthase nanoparticle with a glycan at N71 and SpyTag at the N-terminus) (Aquifex aeolicus)
[2] = target: ferritin-N96-SpyTag (Helicobacter pylori ferritin nanoparticle with a glycan at N96 and SpyTag) (Helicobacter pylori)

RSV F-SpyCatcher (respiratory syncytial virus prefusion F 'DS2' trimer with SpyCatcher at the C-terminus)
percent of nanoparticle subunits conjugated [1]: 67%
percent of nanoparticle subunits conjugated [2]: 85%
